The results in this text go back to patent publication US20060210570A1.

Where only a bound is given, the exact number is not on record here.

In the test the target is prostasin (recombinant human, soluble, active two-chain form purified from conditioned medium of CHO cells transfected with full-length prostasin) (human) (UniProt Q16651). As to the kind of experiment: cell-based or functional assay.
Consider “Alzheimer's amyloid β protein precursor inhibitor (APPI) (from UniProt P05067 287-344)”, for which the IC50 (nM), inhibition of prostasin amidolytic activity towards S2765 was over 1000 nM. In the case of “sHAI-1 (obtained from R & D Systems, Inc.) (from UniProt O43278 36-449)” it was 109 nM; in that of “sHAI-1B wildtype (soluble hepatocyte growth factor activator inhibitor-1B, entire extracellular domain) (from UniProt O43278 36-465)”, 66 nM.
